In one test the target is HLA-B*51:01. Briefly: IEDB peptide-MHC binding, purified MHC/competitive/fluorescence; filed as Kd, often an IC50 or EC50 that approximates it; ≥ and ≤ were set here for values at or beyond the usual limits of such assays.
Test [1] addresses HLA-B*07:02. Described as above. As to conditions: source organism: Escherichia coli str. K-12 substr. MG1655.
In the next test the target is HLA-B*27:03. The test is described as above.
The target of test [2] is HLA-B*39:01. Described as above.
Test [3] has as its target HLA-B*15:01. The test is described as above.
The next test concerns the target HLA-A*26:01. Described as above.
The target in test [4] is HLA-A*69:01. The test is described as above.
Test [5] addresses HLA-A*02:01. The description is as above.
Test [6] deals with HLA-B*46:01. The description is as above.
For test [7], the target named is HLA-B*57:01. Described as above.
The target of another test is HLA-A*03:01. Briefly: IEDB peptide-MHC binding, purified MHC/direct/fluorescence; filed as Kd, often an IC50 or EC50 that approximates it; ≥ and ≤ were set here for values at or beyond the usual limits of such assays.
The target of the next test is HLA-A*02:19. The test is described as above.
In a further test the target is HLA-A*02:03. The test is described as above.
The next test concerns the target HLA-A*02:12. The description is as above.
In the next test the target is HLA-A*24:03. The description is as above.
A further test addresses HLA-A*23:01. Described as above. As to conditions: source organism: Influenza A virus (A/ferret/Maryland/P10-UMD/2008(H9N2)).
The next test deals with HLA-A*02:11. The description is as above.
The target in a further test is HLA-A*02:16. The description is as above.
A further test addresses HLA-A*68:02. Described as above.
For another test, the target named is HLA-C*06:02. The description is as above.
The target of another test is HLA-B*15:17. Briefly: IEDB peptide-MHC binding, purified MHC/competitive/fluorescence; filed as Kd, often an IC50 or EC50 that approximates it; ≥ and ≤ were set here for values at or beyond the usual limits of such assays.
Test [8] concerns the target HLA-B*18:01. The description is as above. As to conditions: source organism: Zaire ebolavirus.
The target in test [9] is HLA-B*07:02. Briefly: IEDB peptide-MHC binding, purified MHC/direct/fluorescence; filed as Kd, often an IC50 or EC50 that approximates it; ≥ and ≤ were set here for values at or beyond the usual limits of such assays.
The target in a further test is HLA-B*58:01. The description is as above.
Test [10] addresses HLA-B*39:01. The description is as above.
The target of test [11] is HLA-B*15:01. Described as above.
A further test concerns the target HLA-B*44:02. The test is described as above.
Another test deals with HLA-A*29:02. The description is as above.
The target of the next test is HLA-A*31:01. Described as above.
The target of the next test is HLA-B*48:01. The test is described as above.
Test [12] has as its target HLA-A*69:01. The test is described as above.
Test [13] has as its target HLA-B*18:01. Described as above.
Test [14] has as its target HLA-A*02:01. The description is as above.
A further test addresses HLA-B*27:05. Described as above.
The target of a further test is HLA-A*01:01. The description is as above.
For test [15], the target named is HLA-B*46:01. Described as above.
Test [16] concerns the target HLA-B*57:01. The test is described as above.
A further test deals with HLA-A*11:01. The test is described as above. As to conditions: source organism: Mycobacterium avium 104.
In a further test the target is HLA-B*40:01. The test is described as above. As to conditions: source organism: Mycobacterium avium 104.
Where [17] appears, read: source organism: Influenza A virus (A/Victoria/1968(H3N2)).
[18] abbreviates: source organism: Influenza A virus (A/ferret/Maryland/P10-UMD/2008(H9N2)).
The mark [19] stands for this setting: source organism: Zaire ebolavirus.
Where [20] appears, read: source organism: Orthohantavirus andesense.
[21] abbreviates: source organism: Mycobacterium avium 104.

A value given as a limit tells only on which side of the number the result lay.

For APTADVAKI, the Kd (as a rule, the constant that tells how readily two partners part at equilibrium) with HLA-B*51:01 (source organism: Escherichia coli str. K-12 substr. MG1655) was no less than 20 µM; with HLA-B*07:02 [1] it was 0.868 µM.

With NMDKAVKLY, the Kd with HLA-B*27:03 (setting [17]), in the test with HLA-B*39:01 [2] (setting [17]), with HLA-B*15:01 [3] (setting [17]), in the test with HLA-B*51:01 (setting [17]), with HLA-A*26:01 (setting [17]) and in the test with HLA-A*69:01 [4] (setting [17]) was no less than 20 µM in each case. The Kd with HLA-A*02:01 [5] (setting [17]), with HLA-B*46:01 [6] (setting [17]), in the test with HLA-B*57:01 [7] (setting [17]), with HLA-A*03:01 (setting [18]), with HLA-A*02:19 (setting [18]) and in the test with HLA-A*02:03 (setting [18]) was no less than 20 µM in each case. Further, the Kd with HLA-A*02:12 (setting [18]), with HLA-A*24:03 (setting [18]), in the test with HLA-A*23:01, in the test with HLA-A*02:11 (setting [18]), in the test with HLA-A*02:16 (setting [18]) and with HLA-A*68:02 (setting [18]) was no less than 20 µM each time.

As for RARLWPRSM, in the test with HLA-C*06:02 (source organism: Mycobacterium tuberculosis variant bovis BCG str. Pasteur 1173P2), the Kd is 0.701 µM.

For TPSGKRLQI, the Kd in the test with HLA-B*27:03 (setting [19]), in the test with HLA-B*39:01 [2] (setting [19]), in the test with HLA-B*15:17 (setting [19]), with HLA-B*15:01 [3] (setting [19]), with HLA-B*51:01 (setting [19]) and with HLA-A*26:01 (setting [19]) was no less than 20 µM in each case. In addition, the Kd in the test with HLA-A*69:01 [4] (setting [19]), with HLA-B*18:01 [8], with HLA-A*02:01 [5] (setting [19]), with HLA-B*46:01 [6] (setting [19]), with HLA-B*57:01 [7] (setting [19]) and in the test with HLA-A*03:01 (setting [19]) was no less than 20 µM each time. Besides, the Kd with HLA-A*02:19 (setting [19]) is no less than 20 µM; in the test with HLA-A*02:03 (setting [19]) it was no less than 20 µM; with HLA-A*02:12 (setting [19]) it was no less than 20 µM; in the test with HLA-B*07:02 [9] (source organism: Sudan ebolavirus - Maleo (1979)), 0.0356 µM; with HLA-A*02:11 (setting [19]), no less than 20 µM; with HLA-A*02:16 (setting [19]) it was no less than 20 µM. This sequence showed a Kd in the test with HLA-A*68:02 (setting [19]) of no less than 20 µM.

TRDHVNLVL: the dissociation constant Kd in the test with HLA-B*27:03 (setting [20]), in the test with HLA-B*15:17 (setting [20]), with HLA-B*51:01 (setting [20]), in the test with HLA-A*26:01 (setting [20]), with HLA-B*58:01 (setting [20]) and with HLA-A*03:01 (setting [20]) was no less than 20 µM throughout. In addition, the Kd with HLA-B*39:01 [10] (setting [20]) was 0.0457 µM; with HLA-B*15:01 [11] (setting [20]) it was no less than 20 µM; with HLA-A*02:12 (source organism: Maporal virus), no less than 20 µM; in the test with HLA-B*07:02 [9] (setting [20]), no less than 20 µM; with HLA-B*44:02 (setting [20]) it was no less than 20 µM; in the test with HLA-A*24:03 (source organism: Maporal virus), no less than 20 µM. For the same sequence, the Kd with HLA-A*29:02 (setting [20]), in the test with HLA-A*31:01 (setting [20]), with HLA-B*48:01 (setting [20]), in the test with HLA-A*69:01 [12] (setting [20]), with HLA-B*18:01 [13] (setting [20]) and in the test with HLA-A*02:01 [14] (setting [20]) was no less than 20 µM each time. Also, the dissociation constant (Kd) in the test with HLA-B*27:05 (setting [20]), with HLA-A*68:02 (source organism: Maporal virus), with HLA-A*01:01 (setting [20]), with HLA-B*46:01 [15] (setting [20]) and in the test with HLA-B*57:01 [16] (setting [20]) was no less than 20 µM throughout.

Regarding VRDVVMPAL, the Kd is no less than 20 µM with HLA-B*58:01 (setting [21]); no less than 20 µM with HLA-A*11:01; no less than 20 µM with HLA-A*03:01 (setting [21]); 0.0674 µM with HLA-B*39:01 [10] (setting [21]); no less than 20 µM with HLA-B*15:01 [11] (setting [21]); no less than 20 µM with HLA-B*44:02 (setting [21]). Further, the Kd with HLA-A*29:02 (setting [21]), in the test with HLA-A*31:01 (setting [21]), with HLA-B*48:01 (setting [21]), with HLA-A*69:01 [12] (setting [21]), with HLA-B*18:01 [13] (setting [21]) and with HLA-A*02:01 [14] (setting [21]) was no less than 20 µM each time. For the same sequence, the Kd with HLA-B*27:05 (setting [21]), with HLA-A*01:01 (setting [21]), in the test with HLA-B*46:01 [15] (setting [21]), with HLA-B*40:01 and with HLA-B*57:01 [16] (setting [21]) was no less than 20 µM each time.

In the test with HLA-C*06:02 (source organism: human gammaherpesvirus 4), YRTATLRTL returned a Kd of 0.009 µM.

Values taken from the Immune Epitope Database (IEDB).
